Assay results: patent US20230293638A1 (Eli Lilly, published 2023)
Numbered stars: 1 amine (or outer) side, 2 acyl side, 3 side chain; on linkers, the order of the positions; unused ones are H or OH. Square brackets hold non-standard residues; d marks the D form. Side chains are listed from the residue outwards. Ends that are not written are not given here. * marks the point of attachment. C20 diacid = O=C(O)CCCCCCCCCCCCCCCCCCC(=O)*; γGlu = O=C(O)[C@H](CCC(=O)[*:2])N[*:1]; AEEA = NCCOCCOCC(=O)O; Aib = CC(C)(N)C(=O)O

B1: Peptide 32 (peptide)
peptide: Y[Aib]EGTFTSDYSILLDKIAQ[Aib]K([AEEA-AEEA-γGlu-C20 diacid])FIEYLIEGGPSSGAPPPS-NH2
modifications: N-terminus assumed
SMILES: CC[C@H](C)[C@H](NC(=O)[C@H](CCCCN)NC(=O)[C@H](CC(=O)O)NC(=O)[C@H](CC(C)C)NC(=O)[C@H](CC(C)C)NC(=O)[C@@H](NC(=O)[C@H](CO)NC(=O)[C@H](Cc1ccc(O)cc1)NC(=O)[C@H](CC(=O)O)NC(=O)[C@H](CO)NC(=O)[C@@H](NC(=O)[C@H](Cc1ccccc1)NC(=O)[C@@H](NC(=O)CNC(=O)[C@H](CCC(=O)O)NC(=O)C(C)(C)NC(=O)[C@@H](N)Cc1ccc(O)cc1)[C@@H](C)O)[C@@H](C)O)[C@@H](C)CC)C(=O)N[C@@H](C)C(=O)N[C@@H](CCC(N)=O)C(=O)NC(C)(C)C(=O)N[C@@H](CCCCNC(=O)COCCOCCNC(=O)COCCOCCNC(=O)CC[C@H](NC(=O)CCCCCCCCCCCCCCCCCCC(=O)O)C(=O)O)C(=O)N[C@@H](Cc1ccccc1)C(=O)N[C@H](C(=O)N[C@@H](CCC(=O)O)C(=O)N[C@@H](Cc1ccc(O)cc1)C(=O)N[C@@H](CC(C)C)C(=O)N[C@H](C(=O)N[C@@H](CCC(=O)O)C(=O)NCC(=O)NCC(=O)N1CCC[C@H]1C(=O)N[C@@H](CO)C(=O)N[C@@H](CO)C(=O)NCC(=O)N[C@@H](C)C(=O)N1CCC[C@H]1C(=O)N1CCC[C@H]1C(=O)N1CCC[C@H]1C(=O)N[C@@H](CO)C(N)=O)[C@@H](C)CC)[C@@H](C)CC
B2: Peptide 46 (peptide)
peptide: Y[Aib]EGTFTSDYSILLDKIAQ[Aib]AFIEYLIEGGPSSGAPK([AEEA-AEEA-γGlu-C20 diacid])PS-NH2
modifications: N-terminus assumed
SMILES: CC[C@H](C)[C@H](NC(=O)[C@H](CCCCN)NC(=O)[C@H](CC(=O)O)NC(=O)[C@H](CC(C)C)NC(=O)[C@H](CC(C)C)NC(=O)[C@@H](NC(=O)[C@H](CO)NC(=O)[C@H](Cc1ccc(O)cc1)NC(=O)[C@H](CC(=O)O)NC(=O)[C@H](CO)NC(=O)[C@@H](NC(=O)[C@H](Cc1ccccc1)NC(=O)[C@@H](NC(=O)CNC(=O)[C@H](CCC(=O)O)NC(=O)C(C)(C)NC(=O)[C@@H](N)Cc1ccc(O)cc1)[C@@H](C)O)[C@@H](C)O)[C@@H](C)CC)C(=O)N[C@@H](C)C(=O)N[C@@H](CCC(N)=O)C(=O)NC(C)(C)C(=O)N[C@@H](C)C(=O)N[C@@H](Cc1ccccc1)C(=O)N[C@H](C(=O)N[C@@H](CCC(=O)O)C(=O)N[C@@H](Cc1ccc(O)cc1)C(=O)N[C@@H](CC(C)C)C(=O)N[C@H](C(=O)N[C@@H](CCC(=O)O)C(=O)NCC(=O)NCC(=O)N1CCC[C@H]1C(=O)N[C@@H](CO)C(=O)N[C@@H](CO)C(=O)NCC(=O)N[C@@H](C)C(=O)N1CCC[C@H]1C(=O)N[C@@H](CCCCNC(=O)COCCOCCNC(=O)COCCOCCNC(=O)CC[C@H](NC(=O)CCCCCCCCCCCCCCCCCCC(=O)O)C(=O)O)C(=O)N1CCC[C@H]1C(=O)N[C@@H](CO)C(N)=O)[C@@H](C)CC)[C@@H](C)CC
B3: Peptide 37 (peptide)
peptide: Y[Aib]EGTFTSDYSILLDKIAQ[Aib]AFIEYLIK([AEEA-AEEA-γGlu-C20 diacid])GGPSSGAPPPS-NH2
modifications: N-terminus assumed
SMILES: CC[C@H](C)[C@H](NC(=O)[C@H](CCCCN)NC(=O)[C@H](CC(=O)O)NC(=O)[C@H](CC(C)C)NC(=O)[C@H](CC(C)C)NC(=O)[C@@H](NC(=O)[C@H](CO)NC(=O)[C@H](Cc1ccc(O)cc1)NC(=O)[C@H](CC(=O)O)NC(=O)[C@H](CO)NC(=O)[C@@H](NC(=O)[C@H](Cc1ccccc1)NC(=O)[C@@H](NC(=O)CNC(=O)[C@H](CCC(=O)O)NC(=O)C(C)(C)NC(=O)[C@@H](N)Cc1ccc(O)cc1)[C@@H](C)O)[C@@H](C)O)[C@@H](C)CC)C(=O)N[C@@H](C)C(=O)N[C@@H](CCC(N)=O)C(=O)NC(C)(C)C(=O)N[C@@H](C)C(=O)N[C@@H](Cc1ccccc1)C(=O)N[C@H](C(=O)N[C@@H](CCC(=O)O)C(=O)N[C@@H](Cc1ccc(O)cc1)C(=O)N[C@@H](CC(C)C)C(=O)N[C@H](C(=O)N[C@@H](CCCCNC(=O)COCCOCCNC(=O)COCCOCCNC(=O)CC[C@H](NC(=O)CCCCCCCCCCCCCCCCCCC(=O)O)C(=O)O)C(=O)NCC(=O)NCC(=O)N1CCC[C@H]1C(=O)N[C@@H](CO)C(=O)N[C@@H](CO)C(=O)NCC(=O)N[C@@H](C)C(=O)N1CCC[C@H]1C(=O)N1CCC[C@H]1C(=O)N1CCC[C@H]1C(=O)N[C@@H](CO)C(N)=O)[C@@H](C)CC)[C@@H](C)CC
B4: Peptide 264 (peptide)
peptide: YXEGTXTSDXSIXLDXKAQXEFIXXLIEGGPSSG
modifications: Aib2; αMeF(2F)6; 4Pal10; αMeL13; Orn16; K17((2-[2-(2-Amino-ethoxy)-ethoxy]-acetyl)2-(γGlu)-CO-(CH2)16-CO2H); Aib20; D-Glu24; αMeY25; C-terminal NH2
B5: Peptide 41 (peptide)
peptide: Y[Aib]EGTFTSDYSILLDKIAQ[Aib]AFIEYLIEGGPK([AEEA-AEEA-γGlu-C20 diacid])SGAPPPS-NH2
modifications: N-terminus assumed
SMILES: CC[C@H](C)[C@H](NC(=O)[C@H](CCCCN)NC(=O)[C@H](CC(=O)O)NC(=O)[C@H](CC(C)C)NC(=O)[C@H](CC(C)C)NC(=O)[C@@H](NC(=O)[C@H](CO)NC(=O)[C@H](Cc1ccc(O)cc1)NC(=O)[C@H](CC(=O)O)NC(=O)[C@H](CO)NC(=O)[C@@H](NC(=O)[C@H](Cc1ccccc1)NC(=O)[C@@H](NC(=O)CNC(=O)[C@H](CCC(=O)O)NC(=O)C(C)(C)NC(=O)[C@@H](N)Cc1ccc(O)cc1)[C@@H](C)O)[C@@H](C)O)[C@@H](C)CC)C(=O)N[C@@H](C)C(=O)N[C@@H](CCC(N)=O)C(=O)NC(C)(C)C(=O)N[C@@H](C)C(=O)N[C@@H](Cc1ccccc1)C(=O)N[C@H](C(=O)N[C@@H](CCC(=O)O)C(=O)N[C@@H](Cc1ccc(O)cc1)C(=O)N[C@@H](CC(C)C)C(=O)N[C@H](C(=O)N[C@@H](CCC(=O)O)C(=O)NCC(=O)NCC(=O)N1CCC[C@H]1C(=O)N[C@@H](CCCCNC(=O)COCCOCCNC(=O)COCCOCCNC(=O)CC[C@H](NC(=O)CCCCCCCCCCCCCCCCCCC(=O)O)C(=O)O)C(=O)N[C@@H](CO)C(=O)NCC(=O)N[C@@H](C)C(=O)N1CCC[C@H]1C(=O)N1CCC[C@H]1C(=O)N1CCC[C@H]1C(=O)N[C@@H](CO)C(N)=O)[C@@H](C)CC)[C@@H](C)CC
B6: Peptide 31 (peptide)
peptide: Y[Aib]EGTFTSDYSILLDKIAK([AEEA-AEEA-γGlu-C20 diacid])[Aib]AFIEYLIEGGPSSGAPPPS-NH2
modifications: N-terminus assumed
SMILES: CC[C@H](C)[C@H](NC(=O)[C@H](CCCCN)NC(=O)[C@H](CC(=O)O)NC(=O)[C@H](CC(C)C)NC(=O)[C@H](CC(C)C)NC(=O)[C@@H](NC(=O)[C@H](CO)NC(=O)[C@H](Cc1ccc(O)cc1)NC(=O)[C@H](CC(=O)O)NC(=O)[C@H](CO)NC(=O)[C@@H](NC(=O)[C@H](Cc1ccccc1)NC(=O)[C@@H](NC(=O)CNC(=O)[C@H](CCC(=O)O)NC(=O)C(C)(C)NC(=O)[C@@H](N)Cc1ccc(O)cc1)[C@@H](C)O)[C@@H](C)O)[C@@H](C)CC)C(=O)N[C@@H](C)C(=O)N[C@@H](CCCCNC(=O)COCCOCCNC(=O)COCCOCCNC(=O)CC[C@H](NC(=O)CCCCCCCCCCCCCCCCCCC(=O)O)C(=O)O)C(=O)NC(C)(C)C(=O)N[C@@H](C)C(=O)N[C@@H](Cc1ccccc1)C(=O)N[C@H](C(=O)N[C@@H](CCC(=O)O)C(=O)N[C@@H](Cc1ccc(O)cc1)C(=O)N[C@@H](CC(C)C)C(=O)N[C@H](C(=O)N[C@@H](CCC(=O)O)C(=O)NCC(=O)NCC(=O)N1CCC[C@H]1C(=O)N[C@@H](CO)C(=O)N[C@@H](CO)C(=O)NCC(=O)N[C@@H](C)C(=O)N1CCC[C@H]1C(=O)N1CCC[C@H]1C(=O)N1CCC[C@H]1C(=O)N[C@@H](CO)C(N)=O)[C@@H](C)CC)[C@@H](C)CC
B7: Peptide 34 (peptide)
peptide: Y[Aib]EGTFTSDYSILLDKIAQ[Aib]AFIK([AEEA-AEEA-γGlu-C20 diacid])YLIEGGPSSGAPPPS-NH2
modifications: N-terminus assumed
SMILES: CC[C@H](C)[C@H](NC(=O)[C@H](CCCCN)NC(=O)[C@H](CC(=O)O)NC(=O)[C@H](CC(C)C)NC(=O)[C@H](CC(C)C)NC(=O)[C@@H](NC(=O)[C@H](CO)NC(=O)[C@H](Cc1ccc(O)cc1)NC(=O)[C@H](CC(=O)O)NC(=O)[C@H](CO)NC(=O)[C@@H](NC(=O)[C@H](Cc1ccccc1)NC(=O)[C@@H](NC(=O)CNC(=O)[C@H](CCC(=O)O)NC(=O)C(C)(C)NC(=O)[C@@H](N)Cc1ccc(O)cc1)[C@@H](C)O)[C@@H](C)O)[C@@H](C)CC)C(=O)N[C@@H](C)C(=O)N[C@@H](CCC(N)=O)C(=O)NC(C)(C)C(=O)N[C@@H](C)C(=O)N[C@@H](Cc1ccccc1)C(=O)N[C@H](C(=O)N[C@@H](CCCCNC(=O)COCCOCCNC(=O)COCCOCCNC(=O)CC[C@H](NC(=O)CCCCCCCCCCCCCCCCCCC(=O)O)C(=O)O)C(=O)N[C@@H](Cc1ccc(O)cc1)C(=O)N[C@@H](CC(C)C)C(=O)N[C@H](C(=O)N[C@@H](CCC(=O)O)C(=O)NCC(=O)NCC(=O)N1CCC[C@H]1C(=O)N[C@@H](CO)C(=O)N[C@@H](CO)C(=O)NCC(=O)N[C@@H](C)C(=O)N1CCC[C@H]1C(=O)N1CCC[C@H]1C(=O)N1CCC[C@H]1C(=O)N[C@@H](CO)C(N)=O)[C@@H](C)CC)[C@@H](C)CC
B8: Peptide 247 (peptide)
peptide: YXEGTXTSDYSIXLDXKAQXEFIXYLIEGGPSSGAPPPS
modifications: not fully specified; Aib2; αMeF(2F)6; Aib13; Orn16; K17((2-[2-(2-Amino-ethoxy)-ethoxy]-acetyl)2-(γGlu)-CO-(CH2)16-CO2H); Aib20; D-Glu24; C-terminal NH2
B9: Peptide 249 (peptide)
peptide: YXEGTXTSDYSIXLDXKAQXEFIXYLIEGGPSSGAPPPS
modifications: not fully specified; Aib2; αMeF(2F)6; Nle13; Orn16; K17((2-[2-(2-Amino-ethoxy)-ethoxy]-acetyl)2-(γGlu)-CO-(CH2)16-CO2H); Aib20; D-Glu24; C-terminal NH2
B10: Peptide 251 (peptide)
peptide: YXEGTXTSDXSIXLDXKAQXAFIXXLIEGGPSSGAPPPS
modifications: Aib2; αMeF(2F)6; 4Pal10; αMeL13; Orn16; K17((2-[2-(2-Amino-ethoxy)-ethoxy]-acetyl)2-(εK)-CO-(CH2)18-CO2H); Aib20; D-Glu24; αMeY25; C-terminal NH2
B11: Peptide 250 (peptide)
peptide: YXEGTXTSDYSIXLDXKAQXEFIXYLIEGGPSSGAPPPS
modifications: Aib2; αMeF(2F)6; Aib13; Orn16; K17((2-[2-(2-Amino-ethoxy)-ethoxy]-acetyl)2-(γGlu)-CO-(CH2)18-CO2H); Aib20; D-Glu24; C-terminal NH2
B12: Peptide 248 (peptide)
peptide: YXEGTXTSDYSILLDXKAQXEFIXYLIEGGPSSGAPPPS
modifications: not fully specified; Aib2; αMeF(2F)6; Orn16; K17((2-[2-(2-Amino-ethoxy)-ethoxy]-acetyl)2-(γGlu)-CO-(CH2)16-CO2H); Aib20; D-Glu24; C-terminal NH2

The binders below were run against human GLP-1 receptor (human, UniProt P43220 24-463) (assay: cell-based or functional assay).
With B1 the “hGLPIR cAMP EC50 ratio” value was 0.136.
For B2, the “hGLPIR cAMP EC50 ratio” value was 0.0969.
For B3, the “hGLPIR cAMP EC50 ratio” value was 0.0533.
For B4, the “hGLPIR cAMP EC50 ratio” value was 3.19.
B5 was tested, and the “hGLPIR cAMP EC50 ratio” value was 0.0637.
In the case of B6, the “hGLPIR cAMP EC50 ratio” value is reported as 0.0708.
B7 was tested, and the “hGLPIR cAMP EC50 ratio” value was 0.0392.
With B8 the “hGLPIR cAMP EC50 ratio” value was 0.614.
B9 was tested, and the “hGLPIR cAMP EC50 ratio” value was 0.778.
For B10, the “hGLPIR cAMP EC50 ratio” value was 1.37.
B11 was tested, and the “hGLPIR cAMP EC50 ratio” value was 0.985.
In the case of B12, the “hGLPIR cAMP EC50 ratio” value is reported as 0.8.
With Y[Aib]EGTFTSDYSILLDKIAQ[Aib]AFK([AEEA-AEEA-γGlu-C20 diacid])EYLIEGGPSSGAPPPS-NH2 [Peptide 33] the “hGLPIR cAMP EC50 ratio” value was 0.000256.
